Laboratory results taken from PMC9976899, “Identification of a novel 5-aminomethyl-2-thiouridine methyltransferase in tRNA modification” (Nucleic Acids Research, 2023).

Target: the molecule itself
Experiment: SEC; oligomeric state of saMnmM in solution examined by size exclusion chromatography; conditions not given

B1: Staphylococcus aureus MnmM (5-aminomethyl-2-thiouridine methyltransferase, formerly YtqB) (enzyme)
chain: MKLERILPFSKTLIKQHITPESIVVDATCGNGNDTLFLAEQVPEGHVYGFDIQDLALENTRDKVKDFNHVSLIKDGHENIEHHINDAHKGHIDAAIFNLGYLPKGDKSIVTKPDTTIQAINSLLSLMSIEGIIVLVIYHGHSEGQIEKHALLDYLSTLDQKHAQVLQYQFLNQRNHAPFICAIEKIS
notes: MnmM (YtqB) of Staphylococcus aureus, UniProt Q2FXG9; gene codon-optimized and synthesized; Truncated constructs are stated only for the plant orthologs; A C-terminal His-tag (pLATE31) is stated expressly only for the B. subtilis gene; also called saMnmM; saYtqB; source: E. coli BL21(DE3), purified (HisTrap HP, SEC Superdex 75)
stoichiometry N: 2
